The supplement of paper PMC9233669
Fewer inactive variants are shown than the library holds.

Assays:
biotinyl-Met-oxazolone = assay: self-aminoacylation, catalytic enhancement (BMO) (fold over background); higher = more active; k-Seq, kA / k0A0; sequences stand for … in GGGAAUGGAUCCACAUCUACGAAUUC…UUCACUGCAGACUUGACGAAGCUG
Procedure, shortened: (§1)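 Mutagenized RNA pools with a 21-nt variable region (0.43 μM) reacted with each biotinyl-aminoacyl-oxazolone at 2–1250 μM. Reactions ran in 50 μL HEPES/NaCl/KCl/MgCl2/CaCl2 buffer with 5% acetonitrile, pH 6.9–7.0, for 90 minutes at room temperature. Streptavidin-captured RNA was quantified by triplicate qPCR and Illumina sequencing, and per-sequence fraction reacted was fit to a pseudo-first-order model with 1000 bootstraps. Catalytic enhancement is median kA divided by the uncatalyzed rate, the low-activity peak of a bimodal Gaussian fit.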

biotinyl-Trp-oxazolone = assay: self-aminoacylation, catalytic enhancement (BWO) (fold over background); higher = more active; k-Seq, kA / k0A0; sequences stand for … in GGGAAUGGAUCCACAUCUACGAAUUC…UUCACUGCAGACUUGACGAAGCUG
Procedure, shortened: as §1

biotinyl-Leu-oxazolone = assay: self-aminoacylation, catalytic enhancement (BLO) (fold over background); higher = more active; k-Seq, kA / k0A0; sequences stand for … in GGGAAUGGAUCCACAUCUACGAAUUC…UUCACUGCAGACUUGACGAAGCUG
Procedure, shortened: as §1

biotinyl-Val-oxazolone = assay: self-aminoacylation, catalytic enhancement (BVO) (fold over background); higher = more active; k-Seq, kA / k0A0; sequences stand for … in GGGAAUGGAUCCACAUCUACGAAUUC…UUCACUGCAGACUUGACGAAGCUG
Procedure, shortened: as §1

biotinyl-Ile-oxazolone = assay: self-aminoacylation, catalytic enhancement (BIO) (fold over background); higher = more active; k-Seq, kA / k0A0; sequences stand for … in GGGAAUGGAUCCACAUCUACGAAUUC…UUCACUGCAGACUUGACGAAGCUG
Procedure, shortened: as §1

biotinyl-Phe-oxazolone = assay: self-aminoacylation, catalytic enhancement (BFO) (fold over background); higher = more active; k-Seq, kA / k0A0; sequences stand for … in GGGAAUGGAUCCACAUCUACGAAUUC…UUCACUGCAGACUUGACGAAGCUG
Procedure, shortened: as §1

| Sequence | self-aminoacylation (biotinyl-Met-oxazolone) | self-aminoacylation (biotinyl-Trp-oxazolone) | self-aminoacylation (biotinyl-Leu-oxazolone) | self-aminoacylation (biotinyl-Val-oxazolone) | self-aminoacylation (biotinyl-Ile-oxazolone) | self-aminoacylation (biotinyl-Phe-oxazolone) |
| --- | --- | --- | --- | --- | --- | --- |
| CCACACUUCAACCAUUCGGUC [Fam1B.1 aminoacylation ribozyme variant] | 1.52 | 1.98 | 1.25 | 1.35 | 1.51 | 6.93 |
| AUUCUCCUAGGUCAUCGCGUG [Fam2.2 aminoacylation ribozyme variant] | 20.9 | 20.6 | 27.3 | 12.2 | 11.4 | 170 |
| CCGCACUACAAGCAAUCGGUC [Fam1B.1 aminoacylation ribozyme variant] | 0.932 | 1.36 | 1.02 | 1.32 | 1.33 | 1.55 |
| AGUCACCUAGCUCAUCGGGUG [Fam2.2 aminoacylation ribozyme variant] | 2.42 | 2.81 | 2.79 | 3.12 | 2.6 | 13.9 |
| AAGUCUGCUACUAGUCGCAAG [Fam3.1 aminoacylation ribozyme variant] | 0.856 | 0.731 | 1.15 | 0.84 | 0.699 | 0.846 |
| CUACUUCAAACAGUCGGUCUU [Fam1A.1 aminoacylation ribozyme variant] | 0.925 | 0.563 | 1.13 | 0.819 | 1.1 | 0.838 |
| CCCCACUUCAAGCAAUCGGUU [Fam1B.1 aminoacylation ribozyme variant] | 3.35 | 16.9 | 4.7 | 3.68 | 2.66 | 12.7 |
| AUUAAGCUAGGUCAUCGGGUG [Fam2.2 aminoacylation ribozyme variant] | 3.88 | 4.85 | 5.1 | 3.77 | 3.11 | 34.3 |
| ACACACUUCAAGCAAUCGCUC [Fam1B.1 aminoacylation ribozyme variant] | 1.63 | 2.57 | 1.75 | 1.92 | 1.84 | 2.24 |
| CAACUUCAAACAAUCGGUCUU [Fam1A.1 aminoacylation ribozyme variant] | 1.53 | 27.7 | 2.43 | 1.5 | 1.59 | 45.8 |
| AUUCACGUAGGUCAUCUGGUG [Fam2.2 aminoacylation ribozyme variant] | 5.3 | 4.82 | 5.52 | 3.61 | 3.05 | 31.2 |
| UUUACCCUGCUCAUCGAGUGA [Fam2.1 aminoacylation ribozyme variant] | 2.03 | 3.13 | 2.15 | 1.54 | 1.28 | 8.11 |
| CUAUUUCAAACAAUGGGUCUG [Fam1A.1 aminoacylation ribozyme variant] | 0.836 | 0.802 | 0.863 | 0.81 | 0.924 | 0.641 |
| AAGCUUGCUAAUAGUAGCAAG [Fam3.1 aminoacylation ribozyme variant] | 1.08 | 2.48 | 1.55 | 1.3 | 1.39 | 2.27 |
| AGGUUUGCUAAUAGUCGAAAG [Fam3.1 aminoacylation ribozyme variant] | 1.16 | 3.4 | 0.991 | 1.02 | 1.2 | 13.6 |
| CAACUUCAAACAAUCGGUAUG [Fam1A.1 aminoacylation ribozyme variant] | 1.31 | 21 | 1.61 | 1.04 | 1.21 | 33.3 |
| CCACACUUCAACGAAUCGGUC [Fam1B.1 aminoacylation ribozyme variant] | 1.03 | 9.08 | 0.962 | 1.09 | 0.873 | 11.2 |
| AUUACCCCGGGCAUCGAGUGA [Fam2.1 aminoacylation ribozyme variant] | 5.45 | 8.11 | 8.03 | 4.03 | 3.78 | 39.4 |
| AUUCACCUACGUCACCGGGUG [Fam2.2 aminoacylation ribozyme variant] | 4.43 | 3.84 | 5.96 | 2.84 | 2.72 | 36.4 |
| AAUCACCUAGGUCAACGGGUG [Fam2.2 aminoacylation ribozyme variant] | 2.91 | 3.32 | 3.39 | 2.77 | 2.29 | 10.3 |
| AAGUUAGCUCAUAGUCGCAAG [Fam3.1 aminoacylation ribozyme variant] | 1.88 | 1.81 | 2.45 | 1.61 | 1.85 | 3.16 |

| Sequence | self-aminoacylation (biotinyl-Met-oxazolone) | self-aminoacylation (biotinyl-Trp-oxazolone) | self-aminoacylation (biotinyl-Leu-oxazolone) | self-aminoacylation (biotinyl-Val-oxazolone) | self-aminoacylation (biotinyl-Ile-oxazolone) | self-aminoacylation (biotinyl-Phe-oxazolone) |
| --- | --- | --- | --- | --- | --- | --- |
| AUUGCCCUAGUCAUCGAGUGA [Fam2.1 aminoacylation ribozyme variant] | 5.83 | 6.87 | 4.97 | 3.21 | 2.73 | 23.6 |
| CUCCUUCAAACUAUCGGUCUG [Fam1A.1 aminoacylation ribozyme variant] | 1.17 | 1.5 | 0.895 | 1.15 | 1.14 | 1.92 |
| CCACCCUUAAAGCAAUCGGUC [Fam1B.1 aminoacylation ribozyme variant] | 0.96 | 1.4 | 1.05 | 1.18 | 1.23 | 1.59 |
| AUUACCCUGGUCAUCGCGGGA [Fam2.1 aminoacylation ribozyme variant] | 5.35 | 3.4 | 7.42 | 4.56 | 5.03 | 29.3 |
| GUUACCCUGGUUAUCGAGUGA [Fam2.1 aminoacylation ribozyme variant] | 11.6 | 13 | 11.8 | 5.74 | 5.48 | 57.6 |
| AUUCAUCUAGGUCAUCGGGUG [Fam2.2 aminoacylation ribozyme variant] | 7.46 | 7.12 | 9.76 | 4.7 | 4.88 | 39.2 |
| CAACACUUCAAGCAAUCGCUC [Fam1B.1 aminoacylation ribozyme variant] | 1.19 | 1.54 | 2.04 | 1.57 | 1.85 | 0.965 |
| AUCCACCUAGGACAUCGGGUG [Fam2.2 aminoacylation ribozyme variant] | 3.23 | 5.03 | 4.49 | 3.38 | 3.12 | 39.9 |
| AUUCCCCUGGUCAUCGAGCGA [Fam2.1 aminoacylation ribozyme variant] | 2.63 | 1.53 | 2.75 | 2.17 | 2.14 | 8.04 |
| CUUCACCUAGGUCACCGGGUG [Fam2.2 aminoacylation ribozyme variant] | 3.54 | 5.51 | 5.4 | 3.81 | 2.92 | 21.9 |
| AGUACCCUGGACAUCGAGUGA [Fam2.1 aminoacylation ribozyme variant] | 5.06 | 5.83 | 6.32 | 2.8 | 2.69 | 21.2 |
| AACUUUGCUAAUAAUCGCAAG [Fam3.1 aminoacylation ribozyme variant] | 1.96 | 2.71 | 2.04 | 1.96 | 1.93 | 3.06 |
| CUACUUCAAAUAAUCGGUCAG [Fam1A.1 aminoacylation ribozyme variant] | 0.675 | 3.24 | 0.708 | 0.83 | 0.755 | 6.75 |
| CUACUUCAAACAAUCGGGGUG [Fam1A.1 aminoacylation ribozyme variant] | 3.77 | 3.36 | 4.32 | 2.35 | 3.04 | 2.9 |
| AUUACCCUCCUCAUCGAGUGA [Fam2.1 aminoacylation ribozyme variant] | 3.98 | 4.74 | 3.99 | 2.08 | 1.81 | 15 |
| AGUCACCUACGUCAUCGGGUG [Fam2.2 aminoacylation ribozyme variant] | 4.95 | 5.27 | 6.83 | 4.21 | 3.49 | 32.4 |
| AUACACCUAGGUCAUCGCGUG [Fam2.2 aminoacylation ribozyme variant] | 8.65 | 8.07 | 10.4 | 5.01 | 4.68 | 69.7 |
| AUUCCCCUGGGCAUCGAGUGA [Fam2.1 aminoacylation ribozyme variant] | 10.8 | 11.6 | 11.1 | 5.1 | 5.22 | 65.9 |
| AAUACCCUGGUCAUCGAGCGA [Fam2.1 aminoacylation ribozyme variant] | 2.03 | 2.75 | 1.55 | 1.66 | 1.65 | 1.56 |
| CCACACUUCAAGCAAUACGUC [Fam1B.1 aminoacylation ribozyme variant] | 0.457 | 0.556 | 0.563 | 0.925 | 0.705 | 1.36 |
| GAACUUCAAACAAUCGGUCUG [Fam1A.1 aminoacylation ribozyme variant] | 1.7 | 35.8 | 2.4 | 1.66 | 1.85 | 65.3 |
